Results on two molecules are retold here after US20250216395A1 (ATYR PHARMA, published 2025).

T1: NRP1v2 (22-602) (human, UniProt O14786 22-602)
T1 construct: Recombinant protein; also called human NRP1
T1 sequence: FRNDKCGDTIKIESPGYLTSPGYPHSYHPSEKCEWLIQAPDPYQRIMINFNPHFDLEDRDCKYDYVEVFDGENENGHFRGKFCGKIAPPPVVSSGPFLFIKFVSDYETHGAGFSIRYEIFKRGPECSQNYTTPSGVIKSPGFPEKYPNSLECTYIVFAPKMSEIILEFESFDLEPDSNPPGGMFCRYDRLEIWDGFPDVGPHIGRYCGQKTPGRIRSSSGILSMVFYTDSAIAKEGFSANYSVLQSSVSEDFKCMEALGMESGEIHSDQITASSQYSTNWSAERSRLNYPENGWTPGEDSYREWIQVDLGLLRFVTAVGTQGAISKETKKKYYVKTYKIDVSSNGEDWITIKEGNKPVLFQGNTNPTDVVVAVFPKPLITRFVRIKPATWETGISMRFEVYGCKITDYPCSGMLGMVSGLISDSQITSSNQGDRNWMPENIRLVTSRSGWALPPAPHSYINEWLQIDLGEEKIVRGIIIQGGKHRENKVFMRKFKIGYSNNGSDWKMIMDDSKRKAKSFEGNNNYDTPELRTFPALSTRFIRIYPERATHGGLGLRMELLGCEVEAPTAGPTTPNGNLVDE

B1: blocking peptide NRP2 (642-659) (peptide)
peptide: SGFNCNFDFLEEPCGWMY
notes: Peptide corresponding to residues 642-659 of NRP2
B2: aNRP2-36v2 (antibody, V domains shown)
VH: ELQLQQSGPELVKPGASVKISCKASGYSFTDYNMNWVKQSNGKSLEWIGVINPKSGTTVYNQKFKGKATLTVDQSSSTAYMQLNSLTSEDSAVYYCARADSSGGCWGQGTTLTVSS
VL: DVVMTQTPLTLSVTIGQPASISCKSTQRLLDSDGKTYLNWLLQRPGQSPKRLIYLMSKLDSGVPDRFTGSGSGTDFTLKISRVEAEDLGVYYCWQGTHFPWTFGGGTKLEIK
notes: Three purification lots were tested; also called antibody aNRP2-36v2; anti-NRP2 antibody

The assay “aNRP2-36v2” addresses B2. Nature of the assay: Western blot competition: 1 ug/mL aNRP2-36v2 with 5 ug/mL blocking peptide; the blocked detection is that of NRP2v2 (23-855) and of NRP2a isoform 2 in lysate. The procedure:
The specificity of aNRP2-36v2 in Western blotting was also confirmed by the ability of the blocking peptide NRP2 (642-659) (SEQ ID NO: 25) to block binding. For these studies, 100 ng of NRP2v2 (23-855) (SEQ ID NO: 14) recombinant protein and 20 ug of total protein from cell lysates of Expi293 cells transiently expressing NRP2a isoform 2 (SEQ ID NO: 10) were denatured for 10 minutes at 70° C. with 1×LDS (ThermoFisher, NP0007) and separated on a 4-12% Bis-Tris Protein Gel (ThermoFisher, NP0335) in 1×MOPS buffer (ThermoFisher, NP000102). The gel was then transferred to a nitrocellulose membrane (Fisher, cat. #IB23001) using an iBlot2 (Fisher, cat. #IB21001) for 7 min at 20V. The membrane was blocked for 1 hour using a 5% milk 0.05% TBST solution, followed by 1 ug/mL of aNRP2-36v2 antibody with or without 5 ug/mL blocking peptide, diluted in 5% milk 0.05% TBST. A peptide corresponding to NRP2v2 (809-820) (SEQ ID NO: 26) was also used as a control. Antibody was incubated on the blots overnight at 4° C. with rocking. After overnight incubation 3 washes with 0.05% TBST for 5 minutes each were performed and goat-a-mouse HRP secondary (Jackson Immuno Research, 115-035-071) diluted at 1:5,000 in the 5% milk mixture was applied to the blots for 1 hour. This was followed by 3 more washes with 0.05% TBST for 5 minutes each. […]
In general terms: A western blot detects proteins with antibodies after separation by electrophoresis.

For the next assay, the target named is T1, NRP1v2 (22-602). Nature of the assay: Western blot, denatured recombinant protein with or without 50 mM DTT. On the procedure: To characterize the binding specificity of antibody aNRP2-36v2 to different denatured isoforms of NRP2 its binding specificity was tested via western blot. In addition to assessing the relative binding to NRP2a and NRP2b, cross-reactivity to mouse and rat NRP2 were also evaluated, as well as non-specific binding to NRP1. The proteins tested via Western were NRP2v2 (23-855) (SEQ ID NO: 14), NRP2v5 (23-832) (SEQ ID NO: 27), mouse NRP2v2 (23-855) (SEQ ID NO: 21), rat NRP2×2 (23-854) (SEQ ID NO: 22), and NRP1v2 (22-602) (SEQ ID NO: 24).
25 ng of each recombinant protein was denatured for 10 minutes at 70° C. with 1×LDS (ThermoFisher, NP0007) with or without 50 mM DTT and separated on a 4-12% Bis-Tris Protein Gel (ThermoFisher, NP0335) in 1×MOPS buffer (ThermoFisher, NP000102). The gel was then transferred to a nitrocellulose membrane (Fisher, cat. #IB23001) using an iBlot2 (Fisher, cat. #IB21001) for 7 min at 20V. The membrane was blocked for 1 hour using a 5% milk 0.05% TBST solution, followed by 1.0 ug/mL of the three lots of aNRP2-36v2 antibody diluted in 5% milk 0.05% TBST. Antibody was incubated on the blots overnight at 4° C. with rocking. After overnight incubation 3 washes with 0.05% TBST for 5 minutes each were performed and goat-a-mouse HRP secondary (Jackson Immuno Research, 115-035-071) diluted at 1:5,000 in the 5% milk mixture was applied to the blots for 1 hour. […]

Sequence of aNRP2-36v2 (VL, as listed by the source): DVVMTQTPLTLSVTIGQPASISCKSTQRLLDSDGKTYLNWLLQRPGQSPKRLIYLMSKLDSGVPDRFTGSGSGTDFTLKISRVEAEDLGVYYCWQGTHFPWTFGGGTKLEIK

Consider B1, for which the binding result with aNRP2-36v2 was “binds”.

For the molecule B2, the binding result with NRP1v2 (22-602) was “no binding”.
